# Test results published in paper PMC5664571.
# Biological target: E. coli RNA polymerase holoenzyme saturated with sigma70 (Escherichia coli) (UniProt P0A7Z4+P0A8V2+P0A8T7+P0A800+P00579)
# Assay: EMSA
# Details: EMSA: 10 nM DNA, 0-170 nM RNAP, binding buffer (5X: 750 mM KCl, 0.5 mM DTT, 0.5 mM EDTA, 50 mM Tris pH 7.4; 1X = 150 mM KCl, 0.1 mM DTT, 0.1 mM EDTA, 10 mM …)
row,Substance,Kd
1,J23112 + UP,12.6 nM
2,J23109,46 nM
3,J23112 + 1/2UP,68.2 nM
4,CCAGGATACATAGATTACCACAACTCCGAGCCCTTCCACCACCTATGGAAAATTTTTTTAAAAAAAAAACTTGACAGCTAGCTCAGTCCTAGGTACTGTGCTAGCAGCTGTCACCGGATGTGCTTTCCGGTCTGATGAGTCCGTGAGGACGAAACAGCCTCTACAAATAATTTTGTTTAATAAGTCCAATAGTTTATAAGGAAAGAATTACCTATGCGTAAAGGCGAAGAGCTGTTCACTGGTGTCGTCCC (double strand) [J23102 + UP],44.8 nM
5,CCAGGATACATAGATTACCACAACTCCGAGCCCTTCCACCACCTATATTTGCTGCTCGTAAAAAAAAAACTTGACAGCTAGCTCAGTCCTAGGTACTGTGCTAGCAGCTGTCACCGGATGTGCTTTCCGGTCTGATGAGTCCGTGAGGACGAAACAGCCTCTACAAATAATTTTGTTTAATAAGTCCAATAGTTTATAAGGAAAGAATTACCTATGCGTAAAGGCGAAGAGCTGTTCACTGGTGTCGTCCC (double strand) [J23102 + 1/2UP],45.5 nM
6,J23112,50.8 nM
7,J23115 + 1/2UP,51.7 nM
8,CCAGGATACATAGATTACCACAACTCCGAGCCCTTCCACCACCTATGGAAAATTTTTTTAAAAAAAAAACCTGACAGCTAGCTCAGTCCTAGGTATAATGCTAGCAGCTGTCACCGGATGTGCTTTCCGGTCTGATGAGTCCGTGAGGACGAAACAGCCTCTACAAATAATTTTGTTTAATAAGTCCAATAGTTTATAAGGAAAGAATTACCTATGCGTAAAGGCGAAGAGCTGTTCACTGGTGTCGTCCC (double strand) [J23108 + UP],31.4 nM
9,CCAGGATACATAGATTACCACAACTCCGAGCCCTTCCACCACCTATGGAAAATTTTTTTAAAAAAAAAACTTGACAGCTAGCTCAGTCCTAGGTATAATGCTAGCAGCTGTCACCGGATGTGCTTTCCGGTCTGATGAGTCCGTGAGGACGAAACAGCCTCTACAAATAATTTTGTTTAATAAGTCCAATAGTTTATAAGGAAAGAATTACCTATGCGTAAAGGCGAAGAGCTGTTCACTGGTGTCGTCCC (double strand) [J23119 + UP],42 nM
10,J23109 + 1/2UP,64.8 nM
11,J23109 + UP,7.44 nM
12,J23115,55 nM
13,J23115 + UP,38.1 nM
14,CCAGGATACATAGATTACCACAACTCCGAGCCCTTCCACCACCTATATTTGCTGCTCGTAAAAAAAAAACTTGACAGCTAGCTCAGTCCTAGGTATAATGCTAGCAGCTGTCACCGGATGTGCTTTCCGGTCTGATGAGTCCGTGAGGACGAAACAGCCTCTACAAATAATTTTGTTTAATAAGTCCAATAGTTTATAAGGAAAGAATTACCTATGCGTAAAGGCGAAGAGCTGTTCACTGGTGTCGTCCC (double strand) [J23119 + 1/2UP],21 nM
15,CCAGGATACATAGATTACCACAACTCCGAGCCCTTCCACCACCTATATTTGCTGCTCGTAAAAAAAAAACCTGACAGCTAGCTCAGTCCTAGGTATAATGCTAGCAGCTGTCACCGGATGTGCTTTCCGGTCTGATGAGTCCGTGAGGACGAAACAGCCTCTACAAATAATTTTGTTTAATAAGTCCAATAGTTTATAAGGAAAGAATTACCTATGCGTAAAGGCGAAGAGCTGTTCACTGGTGTCGTCCC (double strand) [J23108 + 1/2UP],22 nM
